In patent US20160264649A1:

Tests used:
Assay in all cases: cell-based or functional assay
[1] = molecular target: HIV-1 92UG024 Env (HIV-1)
[2] = molecular target: HIV-1 MGRM-AE-006 Env (HIV-1)
[3] = molecular target: HIV-1 MGRM-D-019 Env (HIV-1)
[4] = molecular target: HIV-1 MGRM-D-028 Env (HIV-1)
[5] = molecular target: HIV-1 MGRM-G-001 Env (HIV-1)
[6] = molecular target: HIV-1 MGRM-C-007 Env on pseudovirus (HIV-1)
[7] = molecular target: HIV-1 MGRM-G-017 Env (HIV-1)
[8] = molecular target: HIV-1 MGRM-G-015 Env (HIV-1)
[9] = molecular target: HIV-1 JRCSF Env (HIV-1) (UniProt P20871)
[10] = molecular target: HIV-1 MGRM-G-027 Env (HIV-1)
[11] = molecular target: HIV-1 MGRM-Chronic-B-018 Env on pseudovirus (HIV-1)
[12] = molecular target: HIV-1 MGRM-D-008 Env (HIV-1)
[13] = molecular target: HIV-1 MGRM-C-010 Env on pseudovirus (HIV-1)
[14] = molecular target: HIV-1 MGRM-AE-005 Env (HIV-1)
[15] = molecular target: HIV-1 92UG046 Env (HIV-1)
[16] = molecular target: HIV-1 APV-17 Env (HIV-1)
[17] = molecular target: HIV-1 CAAN.A2 (Acute) Env on pseudovirus (HIV-1)
[18] = molecular target: HIV-1 93IN905 Env (HIV-1)
[19] = molecular target: HIV-1 MGRM-F1-018 Env (HIV-1)
[20] = molecular target: HIV-1 MGRM-C-015 Env on pseudovirus (HIV-1)
[21] = molecular target: HIV-1 MGRM-G-006 Env (HIV-1)
[22] = molecular target: HIV-1 92UG001 Env (HIV-1)
[23] = molecular target: HIV-1 MGRM-D-002 Env (HIV-1)
[24] = molecular target: HIV-1 MGRM-Chronic-B-017 Env on pseudovirus (HIV-1)
[25] = molecular target: HIV-1 MGRM-D-012 Env (HIV-1)
[26] = molecular target: HIV-1 APV_6 Env on pseudovirus (HIV-1)
[27] = molecular target: HIV-1 APV-6 Env (HIV-1)
[28] = molecular target: HIV-1 MGRM-C-006 Env on pseudovirus (HIV-1)
[29] = molecular target: HIV-1 MGRM-C-019 Env on pseudovirus (HIV-1)
[30] = molecular target: HIV-1 MGRM-Chronic-B-023 Env on pseudovirus (HIV-1)
[31] = molecular target: HIV-1 MGRM-AE-002 Env (HIV-1)
[32] = molecular target: HIV-1 97ZA012 Env on pseudovirus (HIV-1)
[33] = molecular target: HIV-1 92RW009 Env (HIV-1)
[34] = molecular target: HIV-1 MGRM-C-008 Env on pseudovirus (HIV-1)
[35] = molecular target: HIV-1 MGRM-Chronic-B-004 Env on pseudovirus (HIV-1)
[36] = molecular target: HIV-1 92BR020 Env (HIV-1)
[37] = molecular target: HIV-1 APV-13 Env (HIV-1)
[38] = molecular target: HIV-1 APV_13 Env on pseudovirus (HIV-1)
[39] = molecular target: HIV-1 MGRM-G-013 Env (HIV-1)
[40] = molecular target: HIV-1 MGRM-F1-023 Env (HIV-1)
[41] = molecular target: HIV-1 94UG114 Env (HIV-1)
[42] = molecular target: HIV-1 MGRM-G-028 Env (HIV-1)
[43] = molecular target: HIV-1 LAVI_C22 Env on pseudovirus (HIV-1)
[44] = molecular target: HIV-1 MGRM-Chronic-B-011 Env on pseudovirus (HIV-1)
[45] = molecular target: HIV-1 MGRM-C-009 Env on pseudovirus (HIV-1)
[46] = molecular target: HIV-1 MGRM-AE-003 Env (HIV-1)
[47] = molecular target: aMLV envelope (negative control pseudovirus)
[48] = molecular target: HIV-1 MGRM-F1-017 Env (HIV-1)
[49] = molecular target: HIV-1 93UG077 Env (HIV-1)
[50] = molecular target: HIV-1 MGRM-A-004 Env (HIV-1)
[51] = molecular target: HIV-1 MGRM-A-001 Env (HIV-1)
[52] = molecular target: HIV-1 MGRM-A-008 Env (HIV-1)

1496_C09 (PG9) (TCN-109) (antibody) showed an IC50 (µg/ml), pseudovirus neutralization [1] of 1.91 µg/mL, an IC50 (µg/ml), pseudovirus neutralization [2] of 0.05 µg/mL and an IC50 (µg/ml), pseudovirus neutralization [3] of 0.03 µg/mL. It also gave an IC50 (µg/ml), pseudovirus neutralization [4] of 4.39 µg/mL, an IC50 (µg/ml), pseudovirus neutralization [5] of 0.16 µg/mL and an IC50 [6] of 0.09 mg/L. For the same substance, the IC50 (µg/ml), pseudovirus neutralization [7] was 0.03 µg/mL, the IC50 (µg/ml), pseudovirus neutralization [8] was 1.51 µg/mL and the neutralization IC50 [9] was < 0.0025 mg/L. The neutralization IC90 [9] was < 0.0025 mg/L, the IC50 (µg/ml), pseudovirus neutralization [10] was 0.01 µg/mL and the IC50 [11] was 0.16 mg/L. For the same substance, the IC50 (µg/ml), pseudovirus neutralization [12] was 6.86 µg/mL, the IC50 [13] was 12.4 mg/L and the IC50 (µg/ml), pseudovirus neutralization [14] was 0.16 µg/mL. The IC50 (µg/ml), pseudovirus neutralization [15] was 0.64 µg/mL, the neutralization IC50 [16] was 26.4 mg/L and the IC50 [17] was 5.67 mg/L. It also gave a neutralization IC90 [18] of 1.89 mg/L, an IC50 (pseudovirus neutralization) [19] of 0.03 mg/L and an IC50 [20] of 0.5 mg/L. It also gave an IC50 (µg/ml), pseudovirus neutralization [21] of 0.51 µg/mL, an IC50 (µg/ml), pseudovirus neutralization [22] of 41.8 µg/mL and an IC50 (µg/ml), pseudovirus neutralization [23] of 0.027 µg/mL. It also gave an IC50 [24] of 0.32 mg/L, an IC50 (µg/ml), pseudovirus neutralization [25] of 9.31 µg/mL and an IC50 [26] of 0.12 mg/L. For the same substance, the neutralization IC50 [27] was 0.0869 mg/L, the neutralization IC90 [27] was 1.96 mg/L and the IC50 [28] was 0.23 mg/L. The IC50 [29] was 0.01 mg/L, the IC50 [30] was 0.04 mg/L and the IC50 (µg/ml), pseudovirus neutralization [31] was 0.04 µg/mL. For the same substance, the IC50 [32] was 1.27 mg/L and the neutralization IC50 [33] was 0.03 mg/L.

With 2F5 (antibody) the IC50 (µg/ml), pseudovirus neutralization [1] was 0.95 µg/mL, the neutralization IC50 [1] was 1.27 mg/L and the neutralization IC90 [1] was 34.4 mg/L. For the same substance, the IC50 (µg/ml), pseudovirus neutralization [2] was 0.18 µg/mL, the IC50 (µg/ml), pseudovirus neutralization [3] was 0.14 µg/mL and the IC50 (µg/ml), pseudovirus neutralization [4] was > 50 µg/mL. For the same substance, the IC50 (µg/ml), pseudovirus neutralization [5] was 4.1 µg/mL, the IC50 [6] was > 50 mg/L and the IC50 [34] was > 50 mg/L. The IC50 [35] was 2.41 mg/L, the neutralization IC50 [36] was > 50 mg/L and the neutralization IC90 [36] was > 50 mg/L. For the same substance, the neutralization IC50 [37] was 2.8 mg/L, the IC50 (µg/ml), pseudovirus neutralization [7] was 0.6 µg/mL and the IC50 [38] was 3.81 mg/L. For the same substance, the IC50 (µg/ml), pseudovirus neutralization [8] was 0.43 µg/mL, the neutralization IC50 [9] was 3.36 mg/L and the neutralization IC90 [9] was 25.3 mg/L. For the same substance, the IC50 (µg/ml), pseudovirus neutralization [39] was 0.59 µg/mL, the IC50 (µg/ml), pseudovirus neutralization [10] was 0.28 µg/mL and the IC50 [11] was 10.8 mg/L. For the same substance, the IC50 (µg/ml), pseudovirus neutralization [12] was > 50 µg/mL, the IC50 (pseudovirus neutralization) [40] was 1.78 mg/L and the IC50 [13] was > 50 mg/L. The IC50 (µg/ml), pseudovirus neutralization [41] was > 50 µg/mL, the IC50 (µg/ml), pseudovirus neutralization [14] was 0.14 µg/mL and the IC50 (µg/ml), pseudovirus neutralization [42] was 2.24 µg/mL. The IC50 (µg/ml), pseudovirus neutralization [15] was > 50 µg/mL, the neutralization IC50 [16] was 2 mg/L and the IC50 [17] was 23.1 mg/L. The IC50 [43] was > 50 mg/L, the IC50 [44] was 0.81 mg/L and the neutralization IC50 [18] was > 50 mg/L. The neutralization IC90 [18] was > 50 mg/L, the IC50 (pseudovirus neutralization) [19] was 3.91 mg/L and the IC50 [20] was > 50 mg/L. The IC50 (µg/ml), pseudovirus neutralization [21] was 1.33 µg/mL, the IC50 (µg/ml), pseudovirus neutralization [22] was 13 µg/mL and the IC50 (µg/ml), pseudovirus neutralization [23] was 24.6 µg/mL. The IC50 [24] was > 50 mg/L, the IC50 (µg/ml), pseudovirus neutralization [25] was 1.7 µg/mL and the IC50 [26] was 0.25 mg/L. The neutralization IC50 [27] was 0.1 mg/L, the IC50 [28] was > 50 mg/L and the IC50 [29] was > 50 mg/L. For the same substance, the IC50 [45] was > 50 mg/L, the IC50 (µg/ml), pseudovirus neutralization [46] was 0.24 µg/mL and the IC50 (pseudovirus neutralization) [47] was > 50 mg/L. For the same substance, the IC50 [30] was 0.1 mg/L, the IC50 (µg/ml), pseudovirus neutralization [31] was 0.31 µg/mL and the IC50 (pseudovirus neutralization) [48] was > 50 mg/L. The IC50 [32] was > 50 mg/L, the neutralization IC50 [49] was 3.3 mg/L and the neutralization IC50 [33] was 39.1 mg/L. The neutralization IC50 [50] was 7.49 mg/L, the neutralization IC50 [51] was > 50 mg/L and the neutralization IC50 [52] was > 50 mg/L.
